Changes are numbered by the printed parent chain. Numbers in names are those of the source.
How the values were obtained:
Format in all cases: cell-based
human HER2/HER4 = biological target: T1, human HER2/HER4 (Homo sapiens, UniProt Q15303); assay: Human HER2/HER4 phospho-ERK 1/2 assay, purified proteins, CHO-K1 cells; settings: for % Maximal NRG1 activity: maximal signal relative to native human NRG1 per plate; for EC50: purified proteins, phospho-ERK1/2
T1 construct: expressed in transfected cells
Method: (§1) A cell based assay utilizing CHO-K1 cells overexpressing human or rat HER receptors is used to determine activity of NRG4 compounds. CHO-K1 cells (ATCC) are grown in DMEM-F12 3:1 with 5% FBS with 20 mM HEPES, 40 μg/mL L-Proline, lx antibiotics and were split 1:5 every 2-3 days with TripLE Express (Gibco). Cells are transfected with plasmid DNA encoding HER receptors in pairs (hHER2-3, hHER2-4, rHER2-3 and rHER2-4) with Fugene 6 (Promega) according to the manufacturer's instructions. […] Transfected cells are selected with Puromycin (12 ug/ml) and Hygromycin (1 mg/ml) for 3-4 weeks and clonal lines are obtained by limited dilution cloning into 96 well plates. Clonal lines are selected by appropriate gene expression of HER2, HER3 or HER4 by Taqman method. Lines with appropriate receptor expression are confirmed by NRG1 induced phospho-ERK 1/2 responses. Clones are grown up, harvested, aliquoted into cryovials and then frozen under liquid nitrogen for long-term storage.
(§2) A phospho-ERK1/2 activity assay is utilized with CHO-K1 cells overexpressing human or rat HER receptors to determine potencies and selectivity of purified NRG4 compounds. CHO-K1 cell lines expressing the human or rat HER receptors are cultured with selection medium (DMEM-F12 3:1 with 5% FBS with 20 mM HEPES, 40 μg/mL L-Proline, 1× antibiotics, 12 μg/mL puromycin, 1 mg/mL Hygromycin B). On Day −1 (the day before phospho-ERK1/2 assay), cells are washed once with PBS, detached with enzyme free cell dissociation solution (GIBCO cat #13151-014), and resuspended in plating medium (DMEM-F12 3:1 with 20 mM HEPES, lx antibiotics, 0.2% FBS). Cells are plated in a 96-well Poly-D-Lysine coated plate (BD cat #354640) at 10,000 cells per 0.1 mL per well. Cells are cultured in a tissue culture incubator at 37° C. 5% CO2 overnight. On Day 1 (the day of pERK1/2 assay), plates are incubated at room temperature for 30 min. The culture media are removed followed by addition of 504, ligand at various concentrations diluted in PBS-20 mM HEPES-0.005% BSA. Native human NRG1 and NRG4 peptides are purchased from Reprokine (Tampa, Fla.). The stimulation time is 30 min (except for hHER2-4 1H6 line in which 15 min is used for stimulation). At the end of stimulation, ligands are removed and 704, Lysis buffer (made according to manufacturer's recipe, Perkin Elmer cat #ALSU-PERK-A10K) is added. Plates are incubated at room temperature for 10 min on plate shaker with 350 rpm agitation, then on ice for 1 hour without shaking. 304, of cell lysis is transferred to a 96-well white Optiplate (Perkin Elmer cat #6002290) for phospho-ERK1/2 assay. Briefly 7.5 μL acceptor beads are added to 30 μL lysis in Optiplate. The plate is covered with aluminum foil and incubated at room temperature for 1 hour on plate shaker with 350 rpm agitation. Then 7.5 μL donor beads are added and the plate is covered with aluminum foil and incubated at room temperature for 2 hours on plate shaker with 350 rpm agitation or at 4° C. for overnight (warm up plate at room temperature for 2 h before reading). Alpha signal data are obtained on an Envision instrument (Alpha Technology-compatible plate reader). Donor beads and acceptor beads are made according to assay protocol. The data shown are generated with either the AlphaScreen SureFire p-ERK1/2 (Thr202/Tyr204) assay kit (Cat #TGRES50k) or the AlphaLISA® SureFire® Ultra™ p-ERK 1/2 (Thr202/Tyr204) assay kit (Perkin Elmer cat #ALSU-PERK-A10K). The activity of the NRG1 peptide was similar in both types of assays. Raw data obtained from the Envision instrument is imported into GraphPad Prism software (version 7). The EC50 value is generated by a variable slope-four parameter dose response curve. The % of maximal NRG1 activity data are generated by expressing the average maximal raw data for the NRG4 compound over the average maximal raw data for the native human NRG1 per plate and multiplying by 100. Data are provided below in Tables 7-9. N values reflect number of independent assays run. […]

rat HER2/HER4 = biological target: T2, rat HER2/HER4 (Rattus norvegicus, UniProt Q62956); assay: Rat HER2/HER4 phospho-ERK 1/2 assay, purified proteins, CHO-K1 cells; settings: for % Maximal NRG1 activity: maximal signal relative to native human NRG1 per plate; for EC50: purified proteins, phospho-ERK1/2
T2 construct: expressed in transfected cells
Method: as §1, §2

human HER2/HER3 = biological target: T3, human HER2/HER3 (Homo sapiens, UniProt P21860); assay: Human HER2/HER3 phospho-ERK 1/2 assay, purified proteins, CHO-K1 cells; settings: for EC50: purified proteins, phospho-ERK1/2
T3 construct: expressed in transfected cells
Method: as §1
as §2, with “assays.” for “assays. Raw data obtained from the Envision instrument is imported into GraphPad Prism software (version 7). The EC50 value is generated by a variable slope-four parameter dose response curve. The % of maximal NRG1 activity data are generated by expressing the average maximal raw data for the NRG4 compound over the average maximal raw data for the native human NRG1 per plate and multiplying by 100. Data are provided below in Tables 7-9. N values reflect number of independent assays run.”

rat HER2/HER3 = biological target: T4, rat HER2/HER3 (Rattus norvegicus, UniProt Q62799); assay: Rat HER2/HER3 phospho-ERK 1/2 assay, purified proteins, CHO-K1 cells; settings: phospho-ERK1/2
T4 construct: expressed in transfected cells
Method: as §1
A phospho-ERK1/2 activity assay is utilized with CHO-K1 cells overexpressing human or rat HER receptors to determine potencies and selectivity of purified NRG4 compounds. CHO-K1 cell lines expressing the human or rat HER receptors are cultured with selection medium (DMEM-F12 3:1 with 5% FBS with 20 mM HEPES, 40 μg/mL L-Proline, 1× antibiotics, 12 μg/mL puromycin, 1 mg/mL Hygromycin B). On Day −1 (the day before phospho-ERK1/2 assay), cells are washed once with PBS, detached with enzyme free cell dissociation solution (GIBCO cat #13151-014), and resuspended in plating medium (DMEM-F12 3:1 with 20 mM HEPES, lx antibiotics, 0.2% FBS). Cells are plated in a 96-well Poly-D-Lysine coated plate (BD cat #354640) at 10,000 cells per 0.1 mL per well. […] Then 7.5 μL donor beads are added and the plate is covered with aluminum foil and incubated at room temperature for 2 hours on plate shaker with 350 rpm agitation or at 4° C. for overnight (warm up plate at room temperature for 2 h before reading). Alpha signal data are obtained on an Envision instrument (Alpha Technology-compatible plate reader). […]

T2 sequence (Q62956 26-1308): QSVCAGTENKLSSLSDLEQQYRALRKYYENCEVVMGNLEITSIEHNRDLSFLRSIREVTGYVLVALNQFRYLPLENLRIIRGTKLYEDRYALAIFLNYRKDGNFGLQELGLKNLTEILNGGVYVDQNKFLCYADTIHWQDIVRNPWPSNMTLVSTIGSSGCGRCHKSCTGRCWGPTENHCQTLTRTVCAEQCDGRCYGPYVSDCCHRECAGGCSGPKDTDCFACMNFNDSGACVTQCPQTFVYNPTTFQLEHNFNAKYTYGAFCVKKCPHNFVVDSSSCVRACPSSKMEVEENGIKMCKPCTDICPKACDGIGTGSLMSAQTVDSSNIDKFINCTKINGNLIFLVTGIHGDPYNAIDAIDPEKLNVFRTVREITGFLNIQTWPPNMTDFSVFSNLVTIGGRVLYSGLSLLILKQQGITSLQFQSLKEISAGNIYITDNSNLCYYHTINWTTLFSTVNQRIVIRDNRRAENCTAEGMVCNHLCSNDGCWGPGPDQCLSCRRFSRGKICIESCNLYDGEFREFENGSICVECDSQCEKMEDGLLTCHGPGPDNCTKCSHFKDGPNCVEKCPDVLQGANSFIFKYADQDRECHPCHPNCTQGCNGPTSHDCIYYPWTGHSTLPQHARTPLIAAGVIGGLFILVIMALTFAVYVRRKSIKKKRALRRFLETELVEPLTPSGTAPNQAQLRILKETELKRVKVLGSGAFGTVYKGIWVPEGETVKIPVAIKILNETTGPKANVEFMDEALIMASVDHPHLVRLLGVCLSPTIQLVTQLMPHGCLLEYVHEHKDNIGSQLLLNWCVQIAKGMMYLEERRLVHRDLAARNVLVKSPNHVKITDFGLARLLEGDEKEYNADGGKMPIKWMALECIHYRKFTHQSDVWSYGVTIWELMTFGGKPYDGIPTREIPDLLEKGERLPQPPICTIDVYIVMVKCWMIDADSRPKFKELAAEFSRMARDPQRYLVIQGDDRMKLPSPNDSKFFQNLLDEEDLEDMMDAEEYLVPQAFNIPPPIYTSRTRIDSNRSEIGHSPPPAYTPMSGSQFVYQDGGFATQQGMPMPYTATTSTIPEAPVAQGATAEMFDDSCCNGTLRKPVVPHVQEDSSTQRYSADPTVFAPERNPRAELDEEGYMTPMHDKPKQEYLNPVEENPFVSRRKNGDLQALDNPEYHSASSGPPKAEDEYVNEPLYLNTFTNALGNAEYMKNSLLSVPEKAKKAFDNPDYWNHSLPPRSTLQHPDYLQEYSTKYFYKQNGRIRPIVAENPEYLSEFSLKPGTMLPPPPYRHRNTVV
T2 sequence (P06494 23-1257 partner): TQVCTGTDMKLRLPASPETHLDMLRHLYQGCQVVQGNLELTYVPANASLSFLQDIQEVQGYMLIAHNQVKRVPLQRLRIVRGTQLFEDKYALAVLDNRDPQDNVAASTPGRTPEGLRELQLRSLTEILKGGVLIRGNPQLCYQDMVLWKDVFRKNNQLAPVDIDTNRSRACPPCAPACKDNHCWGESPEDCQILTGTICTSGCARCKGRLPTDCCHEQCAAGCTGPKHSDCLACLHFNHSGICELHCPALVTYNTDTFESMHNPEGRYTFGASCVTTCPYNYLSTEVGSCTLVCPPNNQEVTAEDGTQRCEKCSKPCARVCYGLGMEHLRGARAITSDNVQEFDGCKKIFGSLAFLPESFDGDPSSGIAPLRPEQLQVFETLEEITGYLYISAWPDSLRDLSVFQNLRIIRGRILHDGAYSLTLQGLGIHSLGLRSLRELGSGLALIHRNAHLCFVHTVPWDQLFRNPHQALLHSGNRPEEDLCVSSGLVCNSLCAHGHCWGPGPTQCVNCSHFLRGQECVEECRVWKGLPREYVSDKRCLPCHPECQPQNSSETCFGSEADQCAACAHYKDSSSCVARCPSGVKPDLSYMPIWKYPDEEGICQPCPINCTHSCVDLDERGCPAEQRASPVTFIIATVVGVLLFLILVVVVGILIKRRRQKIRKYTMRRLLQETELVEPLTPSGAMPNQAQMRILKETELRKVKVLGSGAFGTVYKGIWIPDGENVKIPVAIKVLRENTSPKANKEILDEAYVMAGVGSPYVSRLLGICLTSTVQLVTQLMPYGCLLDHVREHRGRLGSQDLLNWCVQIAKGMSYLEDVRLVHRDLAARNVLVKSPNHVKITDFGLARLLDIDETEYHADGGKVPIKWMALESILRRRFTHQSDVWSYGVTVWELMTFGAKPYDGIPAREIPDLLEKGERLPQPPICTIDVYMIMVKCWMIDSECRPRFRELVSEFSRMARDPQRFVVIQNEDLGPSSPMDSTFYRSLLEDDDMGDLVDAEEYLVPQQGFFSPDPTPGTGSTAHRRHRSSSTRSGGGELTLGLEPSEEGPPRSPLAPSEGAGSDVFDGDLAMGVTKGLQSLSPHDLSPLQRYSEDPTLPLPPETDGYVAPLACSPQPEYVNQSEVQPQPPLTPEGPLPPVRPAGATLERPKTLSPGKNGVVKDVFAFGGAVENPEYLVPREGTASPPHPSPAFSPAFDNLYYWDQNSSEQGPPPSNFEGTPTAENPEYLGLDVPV
T4 sequence (Q62799 20-1339): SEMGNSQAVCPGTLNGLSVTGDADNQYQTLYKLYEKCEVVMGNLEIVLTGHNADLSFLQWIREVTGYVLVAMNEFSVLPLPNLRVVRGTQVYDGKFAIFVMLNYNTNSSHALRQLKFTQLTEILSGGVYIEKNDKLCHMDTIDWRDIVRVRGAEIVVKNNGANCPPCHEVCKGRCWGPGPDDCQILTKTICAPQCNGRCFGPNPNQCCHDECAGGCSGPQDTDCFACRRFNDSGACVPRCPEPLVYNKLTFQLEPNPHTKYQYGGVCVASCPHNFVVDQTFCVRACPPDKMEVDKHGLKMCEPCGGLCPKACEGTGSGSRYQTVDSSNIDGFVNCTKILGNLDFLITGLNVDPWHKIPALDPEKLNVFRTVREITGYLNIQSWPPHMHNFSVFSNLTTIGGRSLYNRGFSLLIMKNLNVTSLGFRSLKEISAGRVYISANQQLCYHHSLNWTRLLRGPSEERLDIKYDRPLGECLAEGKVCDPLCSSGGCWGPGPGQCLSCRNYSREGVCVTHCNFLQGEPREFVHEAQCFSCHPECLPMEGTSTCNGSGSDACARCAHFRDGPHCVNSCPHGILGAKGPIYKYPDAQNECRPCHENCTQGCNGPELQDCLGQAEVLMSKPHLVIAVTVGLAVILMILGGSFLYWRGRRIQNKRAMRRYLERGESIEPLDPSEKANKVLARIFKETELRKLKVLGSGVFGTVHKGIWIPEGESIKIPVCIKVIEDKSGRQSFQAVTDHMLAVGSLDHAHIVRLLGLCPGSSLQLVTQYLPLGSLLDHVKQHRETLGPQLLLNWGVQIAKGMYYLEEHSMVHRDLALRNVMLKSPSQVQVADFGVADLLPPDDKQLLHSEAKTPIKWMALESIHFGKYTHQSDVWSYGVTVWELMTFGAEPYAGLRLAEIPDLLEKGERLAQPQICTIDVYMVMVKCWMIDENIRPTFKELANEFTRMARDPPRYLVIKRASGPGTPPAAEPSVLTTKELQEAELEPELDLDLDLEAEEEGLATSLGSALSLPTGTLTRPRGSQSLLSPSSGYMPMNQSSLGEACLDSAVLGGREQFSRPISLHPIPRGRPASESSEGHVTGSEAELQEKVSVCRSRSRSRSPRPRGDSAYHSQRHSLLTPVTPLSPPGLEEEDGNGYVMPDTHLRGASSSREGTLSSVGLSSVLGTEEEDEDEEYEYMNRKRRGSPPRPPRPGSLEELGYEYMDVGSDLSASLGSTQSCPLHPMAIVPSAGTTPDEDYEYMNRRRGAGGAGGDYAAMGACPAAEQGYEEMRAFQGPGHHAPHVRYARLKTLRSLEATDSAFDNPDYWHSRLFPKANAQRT
T4 sequence (P06494 23-1257 partner): as the sequence (P06494 23-1257 partner) above

WT NRG1: wild type human NRG1; native peptide purchased from Reprokine in Tables 7-9; comparator in the screening assays of Tables 4 and 6
% Maximal NRG1 activity (human HER2/HER4): 100% | EC50 (human HER2/HER4): 0.67 ± 0.07 nM | % Maximal NRG1 activity (rat HER2/HER4): 100% | EC50 (rat HER2/HER4): 0.29 ± 0.05 nM | EC50 (human HER2/HER3): 0.83 ± 0.2 nM | EC50 (rat HER2/HER3): 32 ± 14 nM

WT NRG4: wild type human NRG4 (SEQ ID NO:1); parental hFcNRG4 in screening (Tables 4-6), native peptide from Reprokine in Tables 7-9 (DHEEPCGPSHKSFCLNGGLCYVIPTIPSPFCRCVENYTGARCEEVFL; listed as Homo sapiens)
% Maximal NRG1 activity (human HER2/HER4): 75 ± 4 (N = 8) % | EC50 (human HER2/HER4): 90.1 ± 33.2 nM | EC50 (human HER2/HER3): > 1000 nM | phospho-ERK1/2 activity at the human HER3 HER2 receptors (human HER2/HER3; statement in text on Table 9): no activity

B1: Example 10: NRG4 D1G/V22Q/E44K, (GGGGS)3 linker, SEQ ID NO: 19, fused to IgG Fc dimer SEQ ID NO: 6 and 7 (protein)
chain 1: GGGGSGGGGSGGGGSGHEEPCGPSHKSFCLNGGLCYQIPTIPSPFCRCVENYTGARCEKVFL
chain 2: ECPPCPAPPVAGPSVFLFPPKPKDTLMISRTPEVTCVVVDVSHEDPEVQFNWYVDGVEVHNAKTKPREEQFNSTFRVVSVLTVVHQDWLNGKEYKCKVSNKGLPAPIEKTISKTKGQPREPQVYTLPPSREEMTKNQVSLWCLVKGFYPSDIAVEWESNGQPENNYKTTPPVLDSDGSFFLYSKLTVDKSRWQQGNVFSCSVMHEALHNHYTQKSLSLSPG
chain 3: B1 chain 2 with W141S, L143A, Y182V
% Maximal NRG1 activity (human HER2/HER4): 82 ± 4 (N = 8) % | EC50 (human HER2/HER4): 0.16 ± 0.02 nM | % Maximal NRG1 activity (rat HER2/HER4): 88 ± 7 (N = 2) % | EC50 (rat HER2/HER4): 0.12 ± 0.04 nM | EC50 (human HER2/HER3): > 1000 nM | EC50 (rat HER2/HER3): > 100 nM

Reference: patent US11242370B2, “Neuregulin-4 compounds and methods of use” (Eli Lilly and Company, priority 2019, dated 2022)
